This note sets out measurements from US20040171019A1, “PIN1 peptidyl-prolyl isomerase polypeptides, their crystal structures, and use thereof for drug design” (Agouron Pharmaceuticals, Inc., priority 2002, published 2004).

The assay has as its system Suc-AEPF-pNA peptide substrate. Nature of the assay: Peptidyl-prolyl isomerase activity of PIN1 polypeptides without inhibitor. The note with it: 0.033 nM enzyme, 100 μM Suc-AEPF-pNA. It is filed as biochemical. From the text:
PIN1 is a phosphorylation dependent peptidyl-prolyl isomerase. Peptidyl-prolyl ismomerase activity for the peptides of the invention can be measured using a spectrophotometric assay based on the coupled chymotrypsin catalyzed, cis-trans conformation dependent cleavage of a para-nitroanaline-containing peptide substrate. This rotamase assay is described by Kofron et al. (Biochemistry 30, […] (1991)) and its application to PIN1 isomerase activity is described by Yaffe et al. (Science 278, 1957-1960 (1997)). Cleavage of the isomerized peptide releases para-nitroanaline, which can be monitored by an increase in absorbance at 390 nm. The PIN1 peptide substrate, succinyl-alanine-[…]-proline-phenylalanine-paranitroaniline (Suc-AEPF-pNA) (Bachem California, Inc., Torrence, Calif.) is kept in a predominantly cis conformation with an anhydrous TFE (trifluorethanol)/LiCl (lithium chloride) solvent mixture. […]
Peptidyl-prolyl isomerase reactions were carried out in 25 mM MOPS [3-(N-Morpholino)propanesufonic acid], pH 7.5, 0.5 mM TCEP [Tris(2-carboxyethyl)phosphine hydrochloride], 2% DMSO, 5 μl of a 25 mg/ml solution of Subtilisin Carlsberg Protease (Sigma), […], and 100 μM Suc-AEPF-pNA peptide substrate. […] The absorbance at 390 nm was monitored continuously until all substrate had been converted to the cleaved product. […]

B1: mutant PIN1 PPIase (K77Q/K82Q): mutant PIN1 PPIase polypeptide (SEQ ID NO:4) devoid of the WW domain, with K77Q and K82Q substitutions (protein)
chain: GSHMGKNGQGEPARVRCSHLLVKHSQSRRPSSWRQEQITRTQEEALELINGYIQKIKSGEEDFESLASQFSDCSSAKARGDLGAFSRGQMQKPFEDASFALRTGEMSGPVFTDSGIHIILRTE
B1: the rate was found to be 0.2.
